# Article PMC7094404 (Archives of Biochemistry and Biophysics, 2008)
# Legend:
# [1] = target: SARS-CoV main protease Δ(302–306) (SARS-CoV); test: AUC
# [2] = target: SARS-CoV main protease Δ(297–306) (SARS-CoV); test: AUC
# [3] = target: SARS-CoV main protease Δ(304–306) (SARS-CoV)
# [4] = target: SARS-CoV main protease Δ(304–306) (SARS-CoV); test: AUC
# [5] = target: SARS-CoV main protease Δ(306) (SARS-CoV)
# [6] = target: SARS-CoV main protease Δ(306) (SARS-CoV); test: AUC
# [7] = target: SARS-CoV main protease Δ(303–306) (SARS-CoV)
# [8] = target: SARS-CoV main protease Δ(303–306) (SARS-CoV); test: AUC
# [9] = target: SARS-CoV main protease Δ(305–306) (SARS-CoV)
# [10] = target: SARS-CoV main protease Δ(305–306) (SARS-CoV); test: AUC
# [11] = target: SARS-CoV main protease Δ(298–306) (SARS-CoV); test: AUC
# [12] = target: SARS-CoV main protease Δ(301–306) (SARS-CoV)
substance,measurement,setting,value
SARS-CoV main protease Δ(302–306) (domain or fragment),koff,[1],0.01 s⁻¹
SARS-CoV main protease Δ(297–306) (domain or fragment),Kd,[2],393000 nM
same,koff,[2],123 s⁻¹
SARS-CoV main protease Δ(304–306) (domain or fragment),catalytic constant kcat for the 11-mer peptide ABZ-…-DNP,[3],0.027 s⁻¹
same,koff,[4],0.01 s⁻¹
SARS-CoV main protease Δ(306) (domain or fragment),catalytic constant kcat for the 11-mer peptide ABZ-…-DNP,[5],0.043 s⁻¹
same,Kd,[6],100 nM
same,koff,[6],0.6 s⁻¹
SARS-CoV main protease Δ(303–306) (domain or fragment),catalytic constant kcat for the 11-mer peptide ABZ-…-DNP,[7],0.022 s⁻¹
same,Kd,[8],340 nM
SARS-CoV main protease Δ(305–306) (domain or fragment),catalytic constant kcat for the 11-mer peptide ABZ-…-DNP,[9],0.039 s⁻¹
same,Kd,[10],80 nM
same,koff,[10],0.14 s⁻¹
SARS-CoV main protease Δ(298–306) (domain or fragment),Kd,[11],313000 nM
same,koff,[11],36 s⁻¹
SARS-CoV main protease Δ(301–306) (domain or fragment),catalytic constant kcat for the 11-mer peptide ABZ-…-DNP,[12],0.025 s⁻¹
